According to publication PMC7412812, “The RNA-binding protein SERBP1 functions as a novel oncogenic factor in glioblastoma by bridging cancer metabolism and epigenetic regulation”:

Biological target: T1, SERBP1 (human, UniProt Q8NC51 1-408)
T1 sequence: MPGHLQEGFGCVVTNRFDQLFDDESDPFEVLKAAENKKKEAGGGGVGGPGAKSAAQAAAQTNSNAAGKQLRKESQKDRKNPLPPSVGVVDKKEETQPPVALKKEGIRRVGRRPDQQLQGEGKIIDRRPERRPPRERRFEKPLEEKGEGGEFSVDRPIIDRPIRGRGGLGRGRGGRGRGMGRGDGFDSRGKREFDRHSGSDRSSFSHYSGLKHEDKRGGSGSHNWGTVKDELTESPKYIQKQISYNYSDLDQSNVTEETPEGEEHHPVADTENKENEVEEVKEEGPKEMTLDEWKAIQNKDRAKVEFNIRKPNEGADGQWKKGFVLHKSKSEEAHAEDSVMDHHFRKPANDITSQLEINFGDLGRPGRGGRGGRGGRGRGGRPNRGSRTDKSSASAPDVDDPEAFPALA
Assay: fluorescence polarization; 5 nM RNA, 0-1000 nM protein; FP: 10 mM HEPES pH 7.5, 50 mM KCl, room temperature
Details: protein: recombinant; tags: N-terminal His6, proteolytically removed (Methods; Results call it an N-terminus His6 fusion); label: 5'-fluorescein; single strand

Binder: GCGCGGG (ssRNA) [SERBP1 RNA 7-mer]
- Kd: ~47 nM
